Measured values from patent US20220324954A1.

Key:
human VEGFA (human) [1] = target: human VEGFA (human) (UniProt P15692); test: blocking ELISA: VEGFR2 coated, biotinylated VEGFA with antibody dilutions (FIG. 6)
human VEGFA (human) [2] = target: human VEGFA (human) (UniProt P15692); test: cell-based or functional assay

Chain of human VEGFA (human) (P15692 other isoform, or with tags, fused parts or gaps limits assumed): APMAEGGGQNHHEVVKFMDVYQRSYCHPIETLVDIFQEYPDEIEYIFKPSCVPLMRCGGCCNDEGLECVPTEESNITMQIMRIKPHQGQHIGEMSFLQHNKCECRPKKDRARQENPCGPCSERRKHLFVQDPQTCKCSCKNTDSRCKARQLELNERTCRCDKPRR
Chain of Conbercept (Fc fusion) (chain): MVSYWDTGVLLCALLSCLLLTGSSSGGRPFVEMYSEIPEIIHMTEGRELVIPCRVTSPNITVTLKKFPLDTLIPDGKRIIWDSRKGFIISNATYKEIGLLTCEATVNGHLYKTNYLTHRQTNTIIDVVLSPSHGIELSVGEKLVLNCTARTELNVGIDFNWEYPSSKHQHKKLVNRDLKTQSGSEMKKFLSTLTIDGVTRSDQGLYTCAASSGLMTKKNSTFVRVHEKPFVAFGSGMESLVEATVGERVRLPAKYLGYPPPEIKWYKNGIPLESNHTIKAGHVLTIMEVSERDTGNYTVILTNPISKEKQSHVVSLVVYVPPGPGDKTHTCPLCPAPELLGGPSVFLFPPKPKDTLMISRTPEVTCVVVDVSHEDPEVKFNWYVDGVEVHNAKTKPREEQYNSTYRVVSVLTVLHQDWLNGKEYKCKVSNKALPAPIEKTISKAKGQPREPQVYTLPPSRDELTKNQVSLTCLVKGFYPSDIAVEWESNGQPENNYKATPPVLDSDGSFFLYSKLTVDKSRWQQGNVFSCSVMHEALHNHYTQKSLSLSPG
Chain of Eylea (Aflibercept) (Fc fusion) (chain): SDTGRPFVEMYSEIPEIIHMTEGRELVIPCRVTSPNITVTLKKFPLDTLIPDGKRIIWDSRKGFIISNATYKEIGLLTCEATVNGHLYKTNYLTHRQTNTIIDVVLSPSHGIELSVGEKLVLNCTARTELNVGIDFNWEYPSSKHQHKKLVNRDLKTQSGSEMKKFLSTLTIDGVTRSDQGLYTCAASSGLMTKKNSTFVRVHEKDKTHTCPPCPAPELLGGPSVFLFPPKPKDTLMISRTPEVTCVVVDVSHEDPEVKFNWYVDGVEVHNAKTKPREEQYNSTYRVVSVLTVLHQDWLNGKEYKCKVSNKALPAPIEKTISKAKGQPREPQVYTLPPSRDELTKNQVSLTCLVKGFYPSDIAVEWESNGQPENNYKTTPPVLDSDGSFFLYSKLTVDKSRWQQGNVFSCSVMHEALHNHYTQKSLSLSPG

Conbercept (Fc fusion)
IC50 (human VEGFA (human) [1]): 0.088 µg/mL | inhibitory effect on HUVEC cell proliferation, IC50 (human VEGFA (human) [2]): 0.13 µg/mL

Eylea (Aflibercept) (Fc fusion)
IC50 (human VEGFA (human) [1]): 0.085 µg/mL | inhibitory effect on HUVEC cell proliferation, IC50 (human VEGFA (human) [2]): 0.066 µg/mL
